These results are taken from patent publication US6399065 (SCHERING, dated 2002).

B1: SLAM-Ig (SLAM-immunoglobulin fusion protein: entire extracellular domain of human SLAM fused to the Fc portion of human IgG1 heavy chain) (Fc fusion)
chain: ASYGTGGRMMNCPKILRQLGSKVLLPLTYERINKSMNKSIHIVVTMAKSLENSVENKIVSLDPSEAGPPRYLGDRYKFYLENLTLGIRESRKEDEGWYLMTLEKNVSVQRFCLQLRLYEQVSTPEIKVLNKTQENGTCTLILGCTVEKGDHVAYSWSEKAGTHPLNPANSSHLLSLTLGPQHADNIYICTVSNPISNNSQTFSPWPGCRTDPSETKP
notes: Fluorescein conjugated for flow cytometry; also called recombinant SLAM-Ig; soluble form of SLAM (SLAM-Ig); not shown: Fc portion of the human IgG1 heavy chain
B2: human SLAM (SLAM1, encoded by pSURslam1), cell surface (receptor)
chain: RMMNCPKILRQLGSKVLLPLTYERINKSMNKSIHIVVTMAKSLENSVENKIVSLDPSEAGPPRYLGDRYKFYLENLTLGIRESRKEDEGWYLMTLEKNVSVQRFCLQLRLYEQVSTPEIKVLNKTQENGTCTLILGCTVEKGDHVAYSWSEKAGTHPLNPANSSHLLSLTLGPQHADNIYICTVSNPISNNSQTFSPWPGCRTDPSETKPWAVYAGLLGGVIMILIMVVILQLRRRGKTNHYQTTVEKKSLTIYAQVQKPGPLQKKLDSFPAQDPCTTIYVAATEPVPESVQETNSITVYASVTLPES

Series [1] concerns the target human SLAM (SLAM1, encoded by pSURslam1), cell surface (human) (UniProt Q13291). The series can be described thus: cell-based or functional assay.
For series [2], the target named is B2. The series can be described thus: flow cytometry on SLAM/L cells; reference mAb A12. The procedure: The binding of SLAM-Ig to SLAM transfectants is specific for the SLAM portion of the molecule and not the Ig, as the staining was performed in the presence of excess IgG in the 30% human serum added. Furthermore, SLAM transfectants were not stained by other Fc containing molecules such as CD40-Ig. The binding of SLAM-Ig was about 5-fold lower than the binding to SLAM/L cells observed using an equivalent concentration of the mAb A12. […] SLAM-Ig binding to transfected cells was not inhibited by EDTA.
(§1) The A12 anti-SLAM mAb has been described. Phycoerythrin conjugated CD45RO and CD3 mAbs were purchased from Becton-Dickinson. Cells stained with mAbs, SLAM-Ig or CD40-Ig were washed three times with PBS, 2% FCS and analyzed using a FACScan (Becton-Dickinson).
(A flow cytometer gives signals particle by particle.)

Series [3] concerns the target B2. The series can be described thus: flow cytometry on different SLAM-expressing cell types; reference mAb A12.
Excerpt: as §1
However, SLAM-Ig did bind to EBV-transformed B-cell lines and CD4^+ T-cell clones, both cell types which we have shown to express SLAM. In no cell types tested did SLAM-Ig bind to cells not expressing SLAM. In addition, the levels of SLAM-Ig binding co-modulated with SLAM expression on CD45RO^+ T cells following activation with anti-CD3. The level of SLAM-IG staining relative to A12 staining on different cell-types was consistent with that observed on L-cell transfectants being 5-fold lower and Ca^++ independent.

Series [4] deals with the molecule itself. The series can be described thus: SPR (BIACORE), SLAM-Ig immobilized, SLAM-Ig in solution at 100 nM to 1500 nM, 5 µl/min. The procedure:
(§2) Ab 7D4/SLAM-Ig and SLAM-Ig/SLAM-Ig binding kinetics and affinity were measured. About 8000 resonance units (RUs) of SLAM-Ig were covalently attached to the dextran matrix in the sensor chip via its lysines, according to the manufacturers protocol (BIACORE™ manual, Pharmacia Biosensor). Buffer (phosphate-buffer saline, PBS, pH 7.0) was passed through the flow cell until all of the dissociable protein was removed and the baseline remained stable. Solutions containing various concentrations of the antibody 7D4 in PBS (ranging from 10 nM to 500 nM) were then passed through the flow cell. An increase in mass of protein bound was observed, followed by a decrease when the protein solution was replaced with buffer. A non-linear data analysis protocol, O'Shannessy, et al. (1993) *Anal. Biochem.* 212:457–468, was used to analyze the data to determine the association (k_a) and dissociation (k_d) rate constants. The equilibrium dissociation constant K_d was then calculated from the ratio k_d/k_a.
SLAM-Ig/SLAM-Ig binding kinetics were measured in a similar manner. After immobilization of SLAM-Ig to the chip, solutions of SLAM-Ig at concentrations ranging from 100 nM to 1500 nM were passed through the flow cell at a flow rate of 5 μl/min. From the association and dissociation phases, the corresponding rate constants and thus the equilibrium binding constant were obtained.

Series [5] deals with the molecule itself. The series can be described thus: SPR (BIACORE), SLAM-Ig immobilized, SLAM-Ig in solution; apparent Kd from the rate constants. The procedure: The equilibrium constants for SLAM/SLAM interactions were analyzed by surface plasmon resonance using a BIACORE™ (Pharmacia) instrument. An anti-SLAM Ab 7D4 was used.
as §2
SLAM-Ig/SLAM-Ig binding kinetics were measured in a similar manner. […]
Background: In SPR one partner is held on a chip, and binding of the other changes the refractive index at the surface.

Series [6] concerns the molecule itself. The series can be described thus: cell-based or functional assay.

As to “anti-SLAM monoclonal antibody A12 (IgG1)”, in series [1], the IFN-γ production (pg/ml) by antigen-stimulated T-cell clone Th0/ChT38; no antibody 5207, control Ab 7463 came to 20600 pg/mL; the IFN-γ production (pg/ml) by antigen-stimulated T-cell clone Th0/MoT81; no antibody 5423, control Ab 6596 came to 18200 pg/mL; the IFN-γ production (pg/ml) by antigen-stimulated T-cell clone Th1/HY06; no antibody 5982, control Ab 5904 was 21900 pg/mL; the IFN-γ production (pg/ml) by antigen-stimulated T-cell clone Th1/TA20; no antibody 8374, control Ab 8070 is 15400 pg/mL. In series [1], this molecule had an IFN-γ production (pg/ml) by antigen-stimulated T-cell clone Th2/MoT72; no antibody 496, control Ab 170 of 8580 pg/mL; an IFN-γ production (pg/ml) by antigen-stimulated T-cell clone Th2/NP12; no antibody 962, control Ab 902 of 8300 pg/mL; an IFN-γ production (pg/ml) by antigen-stimulated T-cell clone Th2/NP44; no antibody 1073, control Ab 1319 of 7660 pg/mL; an IFN-γ production by Th2 clones, fold upregulation of 5 to 17 fold. In series [1], this molecule registered an IL-4 production (pg/ml) by antigen-stimulated T-cell clone Th0/ChT38; no antibody 12907, control Ab 10102 of 15000 pg/mL; an IL-4 production (pg/ml) by antigen-stimulated T-cell clone Th0/MoT81; no antibody 8455, control Ab 8451 of 11100 pg/mL; an IL-4 production (pg/ml) by antigen-stimulated T-cell clone Th1/HY06; no antibody 48, control Ab 40 of 90 pg/mL; an IL-4 production (pg/ml) by antigen-stimulated T-cell clone Th1/TA20; no antibody 62, control Ab 69 of 97 pg/mL. In series [1], the IL-4 production (pg/ml) by antigen-stimulated T-cell clone Th2/MoT72; no antibody 8805, control Ab 8542 amounted to 16500 pg/mL; the IL-4 production (pg/ml) by antigen-stimulated T-cell clone Th2/NP12; no antibody 6636, control Ab 6486 was 11100 pg/mL; the IL-4 production (pg/ml) by antigen-stimulated T-cell clone Th2/NP44; no antibody 11617, control Ab 11738 was found to be 10400 pg/mL; the anti-CD3 induced T-cell proliferation at optimal anti-CD3, fold increase is 2 to 3 fold.
The koff is the rate constant with which the complex falls apart. A high value points to a short-lived complex. By kon is commonly meant the rate constant with which the complex forms. Read a high kon as faster complex formation. For B1, the “fold lower binding than an equivalent concentration of mAb A12” value in series [2] is ~5 fold. The “fold lower staining relative to A12 staining” value in series [3] was found to be 5 fold. In series [4], this molecule returned a koff of 0.011 s⁻¹ and a kon of 12000 M⁻¹ s⁻¹. The Kd in series [5] stood at 0.92 µM.
With B2, in series [6], the “proliferation of T cell clone B21 activated with SLAM/L cells, fold enhancement by cyclosporin at 2 µg/ml” value was found to be 2 fold.
